Consider 1 molecule from article PMC10248720.

For the data set, the target named is T1, WOX11 (rice, UniProt Q0D3I7 1-262).
T1 sequence: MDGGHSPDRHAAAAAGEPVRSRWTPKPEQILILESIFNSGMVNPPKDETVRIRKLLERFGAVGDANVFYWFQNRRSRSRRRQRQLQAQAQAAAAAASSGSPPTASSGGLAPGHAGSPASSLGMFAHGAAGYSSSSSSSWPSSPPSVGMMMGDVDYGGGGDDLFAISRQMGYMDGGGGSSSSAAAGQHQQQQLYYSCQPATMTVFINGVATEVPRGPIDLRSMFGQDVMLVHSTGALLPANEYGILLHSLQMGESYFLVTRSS
Description: EMSA.

B1: PRX111-P2 (dsDNA)
DNA 1: TTCACTTAGCTTAATGCTGCTGGTGGC
DNA 2: GCCACCAGCAGCATTAAGCTAAGTGAA
B1: the binding result was “binds”.
